Data taken from US20120195900A1 (AbbVie / Abbott, published 2012).
Like-named read-outs stand apart in the source and are kept apart here.

How the values were obtained:
human IL-12 [1] = target: T1, human IL-12 (human, UniProt P29459 23-219; P29460 23-328, biotinylated in the ELISA (site not stated)); test: cell-based or functional assay
T1 sequence (looked up) 1: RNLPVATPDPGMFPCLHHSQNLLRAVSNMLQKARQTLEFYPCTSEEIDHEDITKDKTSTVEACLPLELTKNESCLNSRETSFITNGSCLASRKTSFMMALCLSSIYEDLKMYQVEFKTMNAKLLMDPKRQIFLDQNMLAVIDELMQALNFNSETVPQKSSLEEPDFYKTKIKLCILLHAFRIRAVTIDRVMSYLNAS
T1 sequence (looked up) 2: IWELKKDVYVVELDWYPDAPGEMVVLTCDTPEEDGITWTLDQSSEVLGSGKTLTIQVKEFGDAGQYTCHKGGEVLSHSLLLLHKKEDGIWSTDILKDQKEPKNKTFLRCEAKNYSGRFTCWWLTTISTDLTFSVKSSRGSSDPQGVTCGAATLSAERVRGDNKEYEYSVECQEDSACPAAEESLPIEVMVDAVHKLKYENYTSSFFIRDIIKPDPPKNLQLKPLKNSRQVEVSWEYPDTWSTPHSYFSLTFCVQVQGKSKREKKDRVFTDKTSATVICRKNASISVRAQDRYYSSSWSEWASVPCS

human IL-12 [2] = target: T1, human IL-12; test: ELISA, biotinylated IL-12 on streptavidin plates, anti-human IgG detection (column head: ED50)
Description: Plates were washed five times with 1× PBST. Biotinylated IL-12 was diluted to 100 ng/ml in 10% superblock/PBST and 100 ml was added to each well. Plates were incubated for 2 hours at room temperature and then washed five times with 1× PBST. Control antibodies (human IgG and 1D4.1) and TVD-Igs were diluted to 1000 ng/ml and serially diluted 1:3 in 10% SB/PBST. Samples were added to the plate at 100 ml per well and incubated for 1 hour at RT. Plates were then washed five times. […] Plates were incubated for 1 hour at Room Temperature and then washed five times. […] Plates were read on a spectrophotometer at OD 450 nm. The EC50 values were determined using sigmoidal curve fit analysis from the binding curve.

hIL-13 = hIL-13 (human, UniProt P35225 35-146, limits assumed); test: cell-based or functional assay
recombinant human IL-18 [3] = target: T2, recombinant human IL-18 (human, UniProt Q14116 37-193); test: cell-based or functional assay
recombinant human IL-18 [4] = target: T2, recombinant human IL-18; test: cell-based or functional assay; remark: listed apart in the source

Sequence of hIL-13 (P35225 35-146 limits assumed): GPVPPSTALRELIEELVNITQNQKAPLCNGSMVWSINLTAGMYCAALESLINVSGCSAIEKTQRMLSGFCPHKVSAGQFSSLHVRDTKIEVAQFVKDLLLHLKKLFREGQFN

B1: 1D4.1 (anti-hIL-12 monoclonal antibody) (antibody, V domains shown)
VH: EVTLRESGPALVKPTQTLTLTCTFSGFSLSKSVMGVSWIRQPPGKALEWLAHIYWDDDKYYNPSLKSRLTISKDTSKNQVVLTMTNMDPVDTATYYCARRGIRSAMDYWGQGTTVTVSS
VL: DIVMTQSPDSLAVSLGERATINCKASQSVSNDVAWYQQKPGQPPKLLIYYASNRYTGVPDRFSGSGSGTDFTLTISSLQAEDVAVYYCQQDYNSPWTFGGGTKVEIKR
notes: also called Control monoclonal antibody; parental monoclonal antibody 1D4.1
B1 was tested, and the “neutralization potency (IC50, nM), human IL-12 bioassay: IFN-γ release from PHA blast cells” value (human IL-12 [1]) was 0.624 nM and the EC50 (human IL-12 [2]) was 0.38 nM.

B2: 13C5.5L3F (anti-IL-13 monoclonal antibody) (antibody, V domains shown)
VH: EVTLRESGPGLVKPTQTLTLTCTLYGFSLSTSDMGVDWIRQPPGKGLEWLAHIWWDDVKRYNPALKSRLTISKDTSKNQVVLKLTSVDPVDTATYYCARTVSSGYIYYAMDYWGQGTLVTVSS
VL: DIQMTQSPSSLSASVGDRVTISCRASQDIRNYLNWYQQKPGKAPKLLIFYTSKLHSGVPSRFSGSGSGTDYTLTISSLQPEDIATYYCQQGLTPPLTFGGGTKVEIKR
With B2 the “neutralization potency (IC50, nM), A-549 bioassay: TARC production” value (hIL-13) was 0.05 nM.

B3: mAb 2.5 (anti-hIL-18 monoclonal antibody) (antibody, V domains shown)
VH: EVQLVQSGTEVKKPGESLKISCKGSGYTVTSYWIGWVRQMPGKGLEWMGFIYPGDSETRYSPTFQGQVTISADKSFNTAFLQWSSLKASDTAMYYCARVGSGWYPYTFDIWGQGTMVTVSS
VL: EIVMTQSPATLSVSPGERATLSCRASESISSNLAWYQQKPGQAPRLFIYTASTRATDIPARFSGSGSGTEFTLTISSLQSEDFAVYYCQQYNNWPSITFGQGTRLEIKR
With B3 the “neutralization potency (IC50, nM), KG-1 bioassay: IFN-γ production” value (recombinant human IL-18 [3]) was 0.58 nM and the “neutralization potency (IC50, nM), KG-1 bioassay: IFN-γ production” value (recombinant human IL-18 [4]) was 0.1 nM.
